Experiment [1] deals with c-myc monoclonal antibody 9E10. In words: immunoprecipitation with 9E10 and protein A-sepharose, acetic acid elution.
The target of experiment [2] is c-myc monoclonal antibody 9E10. The experiment in a line: competitive immunoprecipitation, 35S-labeled fusion, competitor unlabeled synthetic myc peptide.
For experiment [3], the target named is 33 amino acid myc-epitope peptide coded for by RNA124. The experiment in a line: immunoprecipitation of in vitro translated peptide, lane 4 (dilution buffer wash).
For experiment [4] the target is unchanged. The experiment in a line: immunoprecipitation of myc-epitope peptide compared with β-globin translation product.

Bounds are passed on as bounds.

33 amino acid myc-epitope peptide coded for by RNA124, sequence (peptide, as listed by the source): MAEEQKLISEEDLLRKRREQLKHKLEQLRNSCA

Take “wild type c-myc fusion construct (peptide)”: in experiment [1], the percentage bound to the anti-myc antibody was found to be 35%. For the same substance, the percent bound in the presence of unlabeled myc peptide in experiment [2] was 9%.
With c-myc monoclonal antibody 9E10, in experiment [3], the percent of the total TCA precipitable counts isolated turned out to be 83%. Also, the purification (fold) against β-globin protein in experiment [4] is more than 100 fold.
